Test results taken from the supplement of paper PMC9170038.

Experiments:
[1] = system: MS2 coat protein; experiment: apparent KD of MS2 coat protein; higher = weaker reporter binding; settings: Eterna round: R107
Method: (§1)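 RNA-MaP round R107: designed RNA switches with theophylline, tryptophan, arginine or FMN aptamers are transcribed on-chip within common flanks. They are titrated with SNAP-549-labelled MS2 coat protein in RNA-MaP buffer (100 mM Tris pH 7.5, 80 mM KCl, 4 mM MgCl2), without ligand or with the indicated ligand. Median apparent KD per design.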

[2] = system: K4 kissing-loop RNA reporter; experiment: apparent KD of K4 kissing-loop reporter; higher = weaker reporter binding; settings: Eterna round: R107;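 further: bound reporter read as fluorescence of individual clusters on recovered sequencing chips by microscopy, with normalized cluster intensities fitted with a binding model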
Method: as §1, with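 “a labelled K4 kissing-loop RNA reporter” for “SNAP-549-labelled MS2 coat protein”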

[3] = input ligand: theophylline 20 uM
[4] = input ligand: theophylline 2 mM
[5] = input ligand: tryptophan 2.4 mM

Row | Sequence | apparent KD of MS2 coat protein ([1]; input ligand: arginine 13.2 mM) [nM] | apparent KD of MS2 coat protein ([1]; input ligand: none) [nM] | apparent KD of MS2 coat protein [1, 3] [nM] | apparent KD of MS2 coat protein [1, 4] [nM] | apparent KD of MS2 coat protein [1, 5] [nM] | apparent KD of K4 kissing-loop reporter ([2]; input ligand: FMN 200 uM) [nM] | apparent KD of K4 kissing-loop reporter ([2]; input ligand: arginine 13.2 mM) [nM] | apparent KD of K4 kissing-loop reporter ([2]; input ligand: none) [nM] | apparent KD of K4 kissing-loop reporter [2, 3] [nM] | apparent KD of K4 kissing-loop reporter [2, 5] [nM]
1 | CUCCCGUGAGCGGCCGCCACUGGAGGCCUCGCGCGACAUGAGGAUCACCCAUGUUGGCCCGGCCUCAGGACCGGGUUCGCGUGAG [Same State - Tryptophan B Attempt #6 (HarryS)] | 7.47 | 9.18 | 17.4 | 12.7 | 8.4 | – | – | – | – | –
2 | CUCAUCCACGCGGCCGCCACUAUAUUGUGGUGCGUAUGUGUCGUAAUACAUGAGGAUCACCCAUGUAGGACCGGGCGUGGAUGAG [#10 Exclusion Tryptophan B] | 10.9 | – | 14.3 | 11.6 | – | – | – | – | – | –
3 | UGAUACCAGUCGGCCGCCACUACAUGAGGAUCACCCAUGUAUGGGUCAAUGCUAGAUACUAGCAGUAGGACCGGGACUGGUAUCU | 11.4 | – | 14.8 | 13.2 | – | – | – | – | – | –
4 | GGGACAUGAGGAUCACCCAUGUACCGGUCCCGAGGACCGGUACGGCCGCCACUCGAUGACCUCAUAGUCUGCUGGAGCAGCAGAC [Usesedarin] | – | 54.6 | 108 | 84.3 | 330 | – | – | – | – | –
5 | AAACUAACGAGAGGAAACCUCGAGGGUGAUACCAGCACAUAAGGGUGCCCUUGGCAGCACCGACGUACAUGAGGAUCACCCAUGU [Gexegees] | 56.6 | – | 154 | – | 169 | – | – | – | – | –
6 | AAAAUAAAACGUGCAAAAUCCUAAUGUGAAGGAGCGCACGAAAGUGCAGGUAGGUCGCACAUGAGGAUCACCCAUGUAGCACGAA [MAT - Exclusion Arginine A - Mod of Eli - D1] | 60.1 | 300 | 221 | 367 | 230 | – | – | – | – | –
7 | AAAUAAAUACAUGAGGAUCACCCAUGUGAAGGAGCGCCCGUUAGGGCAGGUAGGUCGCACAUGAAUAACUCCGUGCAAAAGCACA [ArgEX 18 #OpenEnded] | 20.9 | 29 | 38.8 | 37.1 | 31.3 | – | – | – | – | –
8 | GCCGGACUUUCGGCCGCCACUGAGAGAGUCGUGUGAACAUGAGGAUCACCCAUGUAAUAUAUAUACAGGACCGGGAGGGUUCGGC [4.S] | 10.5 | 12.2 | 18.7 | 11.9 | 12 | – | – | – | – | –
9 | UUUGAAAUAACAGAUACCAGCGUGUUAUAAAACAUGAGGAUCACCCAUGUAGUGAUCAAGCGCCCUUGGCAGCUGGUAUUUUAGG [7.F] | 118 | – | 208 | – | 172 | – | – | – | – | –
10 | GAGGCACGGUCGGCCGCCACUACAGCAGUGGUCCGCCAAGCGAGGUACAUGAGGAUCACCCAUGUUAGGACCGGGACCUGUUUUU [theeternabot_exclusion_MS2_Trp_B_27] | 20.2 | – | 24.6 | 25.5 | – | – | – | – | – | –
11 | AGCCCUGUACUAGAUACCAGCUACAUGAGGAUCACCCAUGUGCGUCAAGACUGACUGUGUAGCCCUUGGCAGCUACUCGCAUGUA [Exclusion - Theophylline B (Freestyle 3)] | 13.7 | – | 23.1 | – | 14.9 | – | – | – | – | –
12 | AUGGACGGCGAUCUGGGUUUACCAGAUCGGCGAGGACCGGUACGGCCGCCACUCGUGUUUAUUUAACAUGAGGAUCACCCAUGUA [SSTA #2] | 62.4 | 97.6 | 163 | 139 | 21.3 | – | – | – | – | –
13 | AAACGUUGCUCAGAUACCAGACAUGAGGAUCACCCAUGUACCAAGGUAAAGAAAUAACGUGUCCCUUGGCAGCUGAGCAACGAAA [MAT - Exclusion Theophlline B - Mod of Eli - D11] | 13.8 | – | 13.8 | – | 11.1 | – | – | – | – | –
14 | CGCCACAUGAGGAUCACCCAUGUCUUGGCGCGAGGACCGGUACGGCCGCCACUCGCGUUUCAGUGAGCGCAUGCGUCCUUGGUAU [Exclusion Tryp A GF10] | 16.8 | – | 27 | 20.3 | – | – | – | – | – | –
15 | CCAUAGGGUAAAUACAUAAUCAUAUCUGAAGGAGCGUGGAUAAACACAGGUAGGUCGCAGAAUCACAUGAGGAUCACCCAUGUCU [Same State Arginine A GF11] | 24.5 | 36.1 | 53.5 | 52.6 | 36.5 | – | – | – | – | –
16 | ACAUGAGGAUCACCCAUGUCAAGGCACGAUACCAGCUGAUCCGGUGGCCCUUGGCAGCGUCACGUUUGGUCCCGCGGAUGACACG [p'pmullin] | 32.1 | – | 139 | – | 106 | – | – | – | – | –
17 | CGGUUUGUGAUGGAUACCAGCAGAGUGAAUGUUUAUCCUGACAUGAGGAUCACCCAUGUGUGCCCUUGGCAGCUGUUGUGGGCUG [8.Z] | 54.4 | – | 100 | – | 63.7 | – | – | – | – | –
18 | AGAUGACACAGUGGAUAGCAAGAUGCCGAUACCAGCUAGGAAACUAGCCCUUGGCAGCGGUACAUGAGGAUCACCCAUGUAUCCU [EThA NP+V+V2 #10] | 12.4 | – | 15.1 | – | 13.4 | – | – | – | – | –
19 | AGUCUUAUAGGAAGGAGCGCAAUCAUAACAUGAGGAUCACCCAUGUCGAGGUGAGGGUCAUUGCAGGUAGGUCGCCUAACUAAGA [Same State - Arginine B (Freestyle 8)] | 126 | 281 | 121 | 344 | 96.5 | – | – | – | – | –

Row | Sequence | apparent KD of MS2 coat protein ([1]; input ligand: arginine 13.2 mM) [nM] | apparent KD of MS2 coat protein ([1]; input ligand: none) [nM] | apparent KD of MS2 coat protein [1, 3] [nM] | apparent KD of MS2 coat protein [1, 4] [nM] | apparent KD of MS2 coat protein [1, 5] [nM] | apparent KD of K4 kissing-loop reporter ([2]; input ligand: FMN 200 uM) [nM] | apparent KD of K4 kissing-loop reporter ([2]; input ligand: arginine 13.2 mM) [nM] | apparent KD of K4 kissing-loop reporter ([2]; input ligand: none) [nM] | apparent KD of K4 kissing-loop reporter [2, 3] [nM] | apparent KD of K4 kissing-loop reporter [2, 5] [nM]
20 | CCUAUGCAGUCGGCCGCCACUGAAAUCAAUAAGAUUACCUCAGAAACAUGAGGAUCACCCAUGUACAGGACCGGGACUGUAUAGG [Ex Tryptophan B 16] | 20.6 | 40 | 41.8 | 37.2 | 84.3 | – | – | – | – | –
21 | UUAUAUUAUCGAAGGAGCGUCACAUGAGGAUCACCCAUGUACAUGAGGAUCACCCAUGUGUGGCAGGUAGGUCGCGAUAUAUAAC [Exclusion Arginine B GF9] | 120 | – | 250 | 301 | 327 | – | – | – | – | –
22 | AAUAACUUGAGGAUCACCCAAGUAAAAGAUACCAGAGUGAUGAUCCUCCCUUGGCAGCUUAACGCUGAUUGAUUACAAUCAGCGA | 63.2 | 62.3 | 182 | 121 | 45.8 | – | – | – | – | –
23 | ACCGCAUCCGUAUAGGAUGCGGCCCAUGAAGGAGCGUGGGAAACCACAGGUAGGUCGCAUGGAUUACAUGAGGAUCACCCAUGUG [Skyfall] | 104 | 400 | 378 | 706 | 408 | – | – | – | – | –
24 | CCUAUGCAGUCGGCCGCCACUGAACAUGAGGAUCACCCAUGUUUUUAUAAAUAUGGUCCUAUAAUCAGGACCGGGACUGUAUAGG [Ex Tryptophan B 9] | 38.3 | 69.2 | 59.7 | 64.6 | 69.2 | – | – | – | – | –
25 | CAUGGGUGGUAUCACCCAUCCAUAGGUGAUACCAGCAUCGAAAGAUGCCCUUGGCAGCACCAACAUGAGGAUCACCCAUGUAAUA [(M)'-(T)'-(M)''-(T1)-(T2)-(M1)-(M2)_Design2] | 48.1 | – | 189 | – | 354 | – | – | – | – | –
26 | UCGGGCAUGGCGGCCGCCACUGGUUGGCGUGCGGAUGAGGGAACAUGAGGAUCACCCAUGUUGGUUAGGACCGGGCUUGCGUCGU [knkmullin] | 11.8 | 16.5 | 18 | 15.2 | 13.4 | – | – | – | – | –
27 | AUAAGUACGUCAGAUACCAGACAGCCAGACUUACAUGAGGAUCACCCAUGUGGAUGGACGGUCCCUUGGCAGCUGGCCGCAAAAG [Isedgeor] | 172 | – | 128 | – | 216 | – | – | – | – | –
28 | CAAACAUGAGGAUCACCCAUGUAAUCAGAUACCAGUGACGAAAGUCACCCUUGGCAGCUGAGUACAUUAGUUCUAAGGUGUUUGA [EThA NP+V+V2 #6 +-Same Structure] | 32.7 | – | 61 | – | 35.7 | – | – | – | – | –
29 | GAACAACAUGAGGAUCACCCAUGUCAGGAUACCAGUCGAAAGUCAGACCCUUGGCAGCCUAUCACUCAGCAAAUAGAUAGUACAA [theeternabot_sameState_MS2_Theo_A_12] | 14.7 | – | 20.4 | – | 16.2 | – | – | – | – | –
30 | AUUUAAUGUAUAGAUUAUAUACAUUAUUCAGAGGAUAUGCAUUGAAGCAGAAGGCUGGGUGUAGUGAUGUUGCAAUUUUAAUUUA [whbob_SS_FMNA__2th172] | – | – | – | – | – | 118 | 184 | 159 | 299 | 84.1
31 | AAACUUGCAGUGAUGUUGCAAGUAGGUGAUACCAGCAUCGAAAGAUGCCCUUGGCAGCACCAUCUUGCAACAAAGGUGCUGCCAA [(H1)-(H2)-(T1)-(T2)-(H)'-(T)'_Design7] | – | – | – | – | – | 87.5 | 77.4 | 88.2 | 67.6 | 81.2
32 | CCGCUACCCUCAGGAUAUUAAAUAUUAGUGAUGUUAAUAAACCGAUGGCGAAAGCCAUCGGUAUGUUGAGAAGGGAGGGUAGCGG [whbob_SS_FMNB__2th196] | – | – | – | – | – | 145 | 593 | 766 | 549 | 635
33 | AGUGGUGUAUCUUUUAAGAGUGAUGUUUUUCGAGGACCGGUACGGCCGCCACUCGAGUGAUGAGAGCGUCGUUGUGGUGAUUAGU [#15 K4 Tryptophan A Exclusion] | – | – | – | – | – | 814 | 582 | 877 | 860 | 479
34 | UAGUAUAAUCUGUCGUUUACAAUAUUUAGUCAGGAUAUCGUAUAUUCGAGAAGGGACACUAUCUAGUGAUGUUAGAUAUUUCUUU [JR_ExcFMNA_Sub013] | – | – | – | – | – | 46.8 | 78.2 | 54.9 | 71.4 | 52.8
35 | CCUUGAGAGUGAUGUUCUCGAGUGAAAGUCAAGGAUAUCCCGCGGUGGAGAAGGUGAUGGCGAACUUGACUGCUGUCAGUCCUAA [theeternabot_exclusion_KL_FMN_A_10] | – | – | – | – | – | 104 | 105 | 121 | 109 | 110
36 | AAAACGCUGGAUGAAUAACAUCUAGCGAAUCGAGGACCGGUACGGCCGCCACUCGGAGCUAAACUGCGAGUGAUGUUCGUAAAAU [Mat - Mod of OpenEnded 3 - D18] | – | – | – | – | – | 405 | 223 | 588 | 426 | 428
37 | CGCGUAUCGGCAGGAUAUGGAGUUGAGUGAUGUUCAGCAAUGGGUCAUCAUCUUUAUGACAAUCCACCAGAAGGGCCGAUACGCG | – | – | – | – | – | 622 | 632 | 1100 | 944 | 812
